Data as given in PMC6337304, “Site-directed Mutagenesis of a β-Glycoside Hydrolase from Lentinula edodes” (Molecules, 2018).

Each substance was assayed on [H][C@]12[C@H](OC(=O)c3ccccc3)[C@]3(O)C[C@H](OC(=O)[C@H](O)[C@@H](NC(=O)c4ccccc4)c4ccccc4)C(C)=C([C@@H](O)C(=O)[C@]1(C)[C@@H](O[C@@H]1OC[C@@H](O)[C@H](O)[C@H]1O)C[C@@]1([H])OC[C@@]21OC(C)=O)C3(C)C (assay: HPLC of 10-deacetyltaxol formation, Michaelis-Menten nonlinear fit). Conditions: XDT 0.039–5.0 mmol/L; other conditions as in earlier report.
Format: biochemical, Lentinula edodes
Description: HPLC of 10-deacetyltaxol formation, Michaelis-Menten nonlinear fit on LXYL-P1−1

For LXYL-P1−1 (Lentinula edodes; I368T), the Km was 0.35 (±0.10) mM.
With “LXYL-P1−1 (Lentinula edodes; I368E/V91S)” the Km was 0.20 (±0.01) mM.
With LXYL-P1−1 (Lentinula edodes) the Km was 0.50 (±0.01) mM.
LXYL-P1−1 (Lentinula edodes; I368E) was tested, and the Km was 0.42 (±0.01) mM.

Going from LXYL-P1−1 (Lentinula edodes; I368T) to “LXYL-P1−1 (Lentinula edodes; I368E/V91S)”, the Vmax rises from 2.6 µM/min to 3.43 µM/min.

Going from LXYL-P1−1 (Lentinula edodes) to LXYL-P1−1 (Lentinula edodes; I368E), the Vmax rises from 3.42 µM/min to 4.02 µM/min.

LXYL-P1−1 (Lentinula edodes; I368T) and “LXYL-P1−1 (Lentinula edodes; I368E/V91S)” are within 1.5-fold of each other in kcat: 1.56 ± 0.34 s⁻¹ for the first, 2.06 ± 0.01 s⁻¹ for the second.

LXYL-P1−1 (Lentinula edodes) and LXYL-P1−1 (Lentinula edodes; I368E) are within 1.5-fold of each other in kcat: 2.05 ± 0.02 s⁻¹ for the first, 2.41 ± 0.08 s⁻¹ for the second.

LXYL-P1−1 (Lentinula edodes; I368T) and LXYL-P1−1 (Lentinula edodes) are within 1.5-fold of each other in kcat/Km: 4460 M⁻¹ s⁻¹ for the first, 4100 M⁻¹ s⁻¹ for the second.

LXYL-P1−1 (Lentinula edodes; I368E) gave a kcat/Km of 5740 M⁻¹ s⁻¹.
